These results are taken from US20210032299A1 (Eli Lilly, published 2021).

By Ki is commonly meant a dissociation constant, usually derived from enzyme kinetics or from competition with a known ligand.

Starred links: 1 amine or outer side, 2 acyl side, 3 side chain; linkers in the order of their positions; H or OH if unused. Non-standard residues stand in square brackets, D forms with d. Groups on a side chain read outwards from the residue. No end group written: not given here. *: point of attachment. C20 diacid = O=C(O)CCCCCCCCCCCCCCCCCCC(=O)*; γGlu = O=C(O)[C@H](CCC(=O)[*:2])N[*:1]; 4Pal = N[C@@H](Cc1ccncc1)C(=O)O; αMeL = CC(C)C[C@](C)(N)C(=O)O; AEEA = NCCOCCOCC(=O)O; Aib = CC(C)(N)C(=O)O

To fix the notation:
B1: Example 59 (peptide)
peptide: Y[Aib]EGTFISDYSI[αMeL]LDKK([AEEA-AEEA-γGlu-C20 diacid])HQ[Aib]EFVE[4Pal]LLAAGPSSGAPPPS-NH2
modifications: N-terminus assumed
SMILES: CC[C@H](C)[C@H](NC(=O)[C@H](Cc1ccccc1)NC(=O)[C@@H](NC(=O)CNC(=O)[C@H](CCC(=O)O)NC(=O)C(C)(C)NC(=O)[C@@H](N)Cc1ccc(O)cc1)[C@@H](C)O)C(=O)N[C@@H](CO)C(=O)N[C@@H](CC(=O)O)C(=O)N[C@@H](Cc1ccc(O)cc1)C(=O)N[C@@H](CO)C(=O)N[C@H](C(=O)N[C@@](C)(CC(C)C)C(=O)N[C@@H](CC(C)C)C(=O)N[C@@H](CC(=O)O)C(=O)N[C@@H](CCCCN)C(=O)N[C@@H](CCCCNC(=O)COCCOCCNC(=O)COCCOCCNC(=O)CC[C@H](NC(=O)CCCCCCCCCCCCCCCCCCC(=O)O)C(=O)O)C(=O)N[C@@H](Cc1c[nH]cn1)C(=O)N[C@@H](CCC(N)=O)C(=O)NC(C)(C)C(=O)N[C@@H](CCC(=O)O)C(=O)N[C@@H](Cc1ccccc1)C(=O)N[C@H](C(=O)N[C@@H](CCC(=O)O)C(=O)N[C@@H](Cc1ccncc1)C(=O)N[C@@H](CC(C)C)C(=O)N[C@@H](CC(C)C)C(=O)N[C@@H](C)C(=O)N[C@@H](C)C(=O)NCC(=O)N1CCC[C@H]1C(=O)N[C@@H](CO)C(=O)N[C@@H](CO)C(=O)NCC(=O)N[C@@H](C)C(=O)N1CCC[C@H]1C(=O)N1CCC[C@H]1C(=O)N1CCC[C@H]1C(=O)N[C@@H](CO)C(N)=O)C(C)C)[C@@H](C)CC
B2: Example 70 (peptide)
peptide: Y[Aib]EGTFISDYSI[αMeL]LDKK([AEEA-AEEA-γGlu-C20 diacid])HQ[Aib]DFVE[4Pal]LLATGPSSGAPPPS-NH2
modifications: N-terminus assumed
SMILES: CC[C@H](C)[C@H](NC(=O)[C@H](Cc1ccccc1)NC(=O)[C@@H](NC(=O)CNC(=O)[C@H](CCC(=O)O)NC(=O)C(C)(C)NC(=O)[C@@H](N)Cc1ccc(O)cc1)[C@@H](C)O)C(=O)N[C@@H](CO)C(=O)N[C@@H](CC(=O)O)C(=O)N[C@@H](Cc1ccc(O)cc1)C(=O)N[C@@H](CO)C(=O)N[C@H](C(=O)N[C@@](C)(CC(C)C)C(=O)N[C@@H](CC(C)C)C(=O)N[C@@H](CC(=O)O)C(=O)N[C@@H](CCCCN)C(=O)N[C@@H](CCCCNC(=O)COCCOCCNC(=O)COCCOCCNC(=O)CC[C@H](NC(=O)CCCCCCCCCCCCCCCCCCC(=O)O)C(=O)O)C(=O)N[C@@H](Cc1c[nH]cn1)C(=O)N[C@@H](CCC(N)=O)C(=O)NC(C)(C)C(=O)N[C@@H](CC(=O)O)C(=O)N[C@@H](Cc1ccccc1)C(=O)N[C@H](C(=O)N[C@@H](CCC(=O)O)C(=O)N[C@@H](Cc1ccncc1)C(=O)N[C@@H](CC(C)C)C(=O)N[C@@H](CC(C)C)C(=O)N[C@@H](C)C(=O)N[C@H](C(=O)NCC(=O)N1CCC[C@H]1C(=O)N[C@@H](CO)C(=O)N[C@@H](CO)C(=O)NCC(=O)N[C@@H](C)C(=O)N1CCC[C@H]1C(=O)N1CCC[C@H]1C(=O)N1CCC[C@H]1C(=O)N[C@@H](CO)C(N)=O)[C@@H](C)O)C(C)C)[C@@H](C)CC
B3: Example 79 (peptide)
peptide: Y[Aib]EGTFISDYSI[αMeL]LDKK([AEEA-AEEA-γGlu-C20 diacid])HQ[Aib]DFVE[4Pal]LLAQGPSSGAPPPS-NH2
modifications: N-terminus assumed
SMILES: CC[C@H](C)[C@H](NC(=O)[C@H](Cc1ccccc1)NC(=O)[C@@H](NC(=O)CNC(=O)[C@H](CCC(=O)O)NC(=O)C(C)(C)NC(=O)[C@@H](N)Cc1ccc(O)cc1)[C@@H](C)O)C(=O)N[C@@H](CO)C(=O)N[C@@H](CC(=O)O)C(=O)N[C@@H](Cc1ccc(O)cc1)C(=O)N[C@@H](CO)C(=O)N[C@H](C(=O)N[C@@](C)(CC(C)C)C(=O)N[C@@H](CC(C)C)C(=O)N[C@@H](CC(=O)O)C(=O)N[C@@H](CCCCN)C(=O)N[C@@H](CCCCNC(=O)COCCOCCNC(=O)COCCOCCNC(=O)CC[C@H](NC(=O)CCCCCCCCCCCCCCCCCCC(=O)O)C(=O)O)C(=O)N[C@@H](Cc1c[nH]cn1)C(=O)N[C@@H](CCC(N)=O)C(=O)NC(C)(C)C(=O)N[C@@H](CC(=O)O)C(=O)N[C@@H](Cc1ccccc1)C(=O)N[C@H](C(=O)N[C@@H](CCC(=O)O)C(=O)N[C@@H](Cc1ccncc1)C(=O)N[C@@H](CC(C)C)C(=O)N[C@@H](CC(C)C)C(=O)N[C@@H](C)C(=O)N[C@@H](CCC(N)=O)C(=O)NCC(=O)N1CCC[C@H]1C(=O)N[C@@H](CO)C(=O)N[C@@H](CO)C(=O)NCC(=O)N[C@@H](C)C(=O)N1CCC[C@H]1C(=O)N1CCC[C@H]1C(=O)N1CCC[C@H]1C(=O)N[C@@H](CO)C(N)=O)C(C)C)[C@@H](C)CC
B4: Example 78 (peptide)
peptide: Y[Aib]EGTFISDYSI[αMeL]LDKK([AEEA-AEEA-γGlu-C20 diacid])HQ[Aib]DFVE[4Pal]LLAAGPSSGAPPPS-NH2
modifications: N-terminus assumed
SMILES: CC[C@H](C)[C@H](NC(=O)[C@H](Cc1ccccc1)NC(=O)[C@@H](NC(=O)CNC(=O)[C@H](CCC(=O)O)NC(=O)C(C)(C)NC(=O)[C@@H](N)Cc1ccc(O)cc1)[C@@H](C)O)C(=O)N[C@@H](CO)C(=O)N[C@@H](CC(=O)O)C(=O)N[C@@H](Cc1ccc(O)cc1)C(=O)N[C@@H](CO)C(=O)N[C@H](C(=O)N[C@@](C)(CC(C)C)C(=O)N[C@@H](CC(C)C)C(=O)N[C@@H](CC(=O)O)C(=O)N[C@@H](CCCCN)C(=O)N[C@@H](CCCCNC(=O)COCCOCCNC(=O)COCCOCCNC(=O)CC[C@H](NC(=O)CCCCCCCCCCCCCCCCCCC(=O)O)C(=O)O)C(=O)N[C@@H](Cc1c[nH]cn1)C(=O)N[C@@H](CCC(N)=O)C(=O)NC(C)(C)C(=O)N[C@@H](CC(=O)O)C(=O)N[C@@H](Cc1ccccc1)C(=O)N[C@H](C(=O)N[C@@H](CCC(=O)O)C(=O)N[C@@H](Cc1ccncc1)C(=O)N[C@@H](CC(C)C)C(=O)N[C@@H](CC(C)C)C(=O)N[C@@H](C)C(=O)N[C@@H](C)C(=O)NCC(=O)N1CCC[C@H]1C(=O)N[C@@H](CO)C(=O)N[C@@H](CO)C(=O)NCC(=O)N[C@@H](C)C(=O)N1CCC[C@H]1C(=O)N1CCC[C@H]1C(=O)N1CCC[C@H]1C(=O)N[C@@H](CO)C(N)=O)C(C)C)[C@@H](C)CC

T3 sequence (P47871 26-477): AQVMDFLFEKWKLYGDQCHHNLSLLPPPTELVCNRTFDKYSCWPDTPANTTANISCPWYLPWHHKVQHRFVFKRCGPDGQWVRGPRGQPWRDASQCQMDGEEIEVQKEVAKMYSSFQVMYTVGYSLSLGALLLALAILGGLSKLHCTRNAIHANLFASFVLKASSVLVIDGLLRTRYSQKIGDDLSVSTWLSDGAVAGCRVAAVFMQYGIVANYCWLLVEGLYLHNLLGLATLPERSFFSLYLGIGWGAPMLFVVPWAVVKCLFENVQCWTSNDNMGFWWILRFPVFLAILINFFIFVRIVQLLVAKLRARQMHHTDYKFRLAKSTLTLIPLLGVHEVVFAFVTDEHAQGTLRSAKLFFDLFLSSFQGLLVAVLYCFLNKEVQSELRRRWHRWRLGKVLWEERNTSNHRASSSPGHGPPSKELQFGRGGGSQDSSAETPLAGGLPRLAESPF

For one experiment, the target named is T1, human GLP-1 receptor (human, UniProt P43220 24-463).
T1 construct: whole, on cells; Assayed as crude membranes of stably transfected HEK293 cells; also called hGLP1R; hGLP-1R
As to the kind of experiment: SPA, displacement of [125I]-GLP-1 from hGLP-1R membranes, 0.1% bacitracin. The gist of the method: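 Binding buffer: 25 mM HEPES pH 7.4, 2.5 mM CaCl₂, 1 mM MgCl₂, 0.1% bacitracin, 0.003% Tween-20, protease inhibitors without EDTA. Four-parameter nonlinear regression; Kᵢ given as geometric mean ± SEM, n = independent replicates run on different days.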
Turning to B1, affinity was put at a Ki of 109 nM. That is a sub-micromolar value.

On to B2, for which the affinity corresponds to a Ki of 570 nM.

With B3, the Ki is 486 nM.

B4 gave a Ki of 394 nM.

Another experiment concerns the target T2, human glucose-dependent insulinotropic polypeptide (GIP) receptor (human, UniProt P48546 22-466).
T2 construct: whole, on cells; Assayed as crude membranes of stably transfected CHO cells; also called hGIPR; human GIP receptor
T2 sequence (looked up): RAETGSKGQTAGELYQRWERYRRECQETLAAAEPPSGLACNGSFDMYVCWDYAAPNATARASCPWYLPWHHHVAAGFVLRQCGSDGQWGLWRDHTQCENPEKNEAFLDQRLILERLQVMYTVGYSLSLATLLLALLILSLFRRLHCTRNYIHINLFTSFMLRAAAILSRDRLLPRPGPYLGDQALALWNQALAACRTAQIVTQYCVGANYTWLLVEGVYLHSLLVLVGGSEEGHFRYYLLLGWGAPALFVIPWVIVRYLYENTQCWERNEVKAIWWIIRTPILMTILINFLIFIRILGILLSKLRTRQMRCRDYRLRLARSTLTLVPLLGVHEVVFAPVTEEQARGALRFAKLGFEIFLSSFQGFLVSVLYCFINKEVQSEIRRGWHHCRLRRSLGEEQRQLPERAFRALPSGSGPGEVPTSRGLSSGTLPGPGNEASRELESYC
The experiment can be described thus: SPA, displacement of [125I]-GIP from hGIPR membranes, 0.1% bacitracin.
With B1, affinity was put at a Ki of 0.0148 nM.

The molecule B2 yielded a Ki of 0.0421 nM.

The molecule B3 came in with a Ki of 0.0229 nM. This Ki lies about 1.8-fold lower than the previous one.

In turn, B4 had a Ki of 0.0236 nM. The Ki values of the last two molecules are within 1.5-fold of each other.

Another experiment concerns the target T3, human glucagon receptor (human, UniProt P47871 26-477).
T3 construct: whole, on cells; Assayed as crude membranes of stably transfected HEK293 cells; also called hGcgR; GcgR
The experiment can be described thus: SPA, displacement of [125I]-Gcg from hGcgR membranes, 0.1% bacitracin. The gist of the method:
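Binding buffer: 25 mM HEPES pH 7.4, 2.5 mM CaCl₂, 1 mM MgCl₂, 0.003% Tween-20, protease inhibitors without EDTA. Counted by scintillation after 12 h incubation/settling at room temperature. Four-parameter nonlinear fit; Kᵢ given as geometric mean ± SEM of independent replicates run on different days.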
Background: Displacement assays read how much labelled ligand stays bound in the presence of the test substance.
As to B1, the affinity corresponds to a Ki of 230 nM.

For the molecule B2, the Ki is 857 nM.

Consider B3, for which the Ki was found to be 888 nM.

Molecule B4 came in with a Ki of 505 nM. This Ki is about 1.8-fold lower than that of the molecule before.
